Laboratory results published in the supplement of paper PMC7877785.
± gives the uncertainty stated by the source.

Assay: self-splicing fitness, log relative to wild type (ln ratio); higher = more splicing; Tetrahymena group I intron in knt gene, E. coli kanamycin selection, DiMSum; sequences stand for … in CUCUCU…GGAGGGAAAAGUUAUCAGGCAUGCACCUGGUAGCUAGUCUUUAAACCAAUAGAUUGCAUCGGUUUAAAAGGCAAGACCGUCAAAUUGCGGGAAAGGGGUCAACAGCCGUUCAGUACCAAGUCUCAGGGGAAACUUUGAGAUGGCCUUGCAAAGGGUAUGGUAAUAAGCUGACGGACAUGGUCCUAACCACGCAGCCAAGUCCUAAGUCAACAGAUCUUCUGUUGAUAUGGAUGCAGUUCACAGACUAAAUGUCGGUCGGGGAAGAUGUAUUCUUCUCAUAAGAUAUAGUCGGACCUCUCCUUAAUGGGAGCUAGCGGAUGAAGUGAUGCAACACUGGAGCCGCUGGGAACUAAUUUGUAUGCGAAAGUAUAUUGAUUAGUUUUGGAGUACUCGUGGUCG
Outline: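 DiMSum derived fitness as the error-weighted combination of fold changes across replicates, kanamycin versus no kanamycin, normalised to wild type. E. coli BL21(DE3) held the library, which randomised all eight P1ex-region intron nucleotides within the knt kanamycin-resistance gene on pET-22b(+). Six replicate transformations grew overnight at 37°C or 30°C on LB agar with or without 25 μg/mL kanamycin, also containing 100 μg/mL carbenicillin, 50 μM IPTG and 0.2% rhamnose, and pooled colonies were amplicon-sequenced on an Illumina HiSeq 2500.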

Sequence	self-splicing fitness (ln) (30 °C)	self-splicing fitness (ln) (37 °C)
AAAAAGCAAUAUUACGAAAA	-2.26 ± 0.17	-0.664 ± 0.14
AAAAAGCAAUAUUACGAAGU	-2.08 ± 0.13	-0.998 ± 0.15
AAAAAGCAAUAUUACGACGG	-1.76 ± 0.17	-1.12 ± 0.21
AAAAAGCAAUAUUACGACUA	-0.0366 ± 0.1	0.028 ± 0.1
AAAAAGCAAUAUUACGAGUA	-1.68 ± 0.12	-0.884 ± 0.11
AAAAAGCAAUAUUACGCACA	-0.661 ± 0.067	-0.183 ± 0.087
AAAAAGCAAUAUUACGCAGA	-2.35 ± 0.15	-1.86 ± 0.14
AAAAAGCAAUAUUACGCAGG	-2.42 ± 0.15	-1.03 ± 0.14
AAAAAGCAAUAUUACGCAGU	-1.99 ± 0.15	-2.19 ± 0.2
AAAAAGCAAUAUUACGCCCC	-0.356 ± 0.25	0.308 ± 0.34
AAAAAGCAAUAUUACGCCCG	-0.481 ± 0.16	0.243 ± 0.23
AAAAAGCAAUAUUACGCGAA	-2.07 ± 0.12	-1.19 ± 0.16
AAAAAGCAAUAUUACGCUUA	-1.36 ± 0.13	-0.916 ± 0.12
AAAAAGCAAUAUUACGGAAC	-2.97 ± 0.16	-1.77 ± 0.2
AAAAAGCAAUAUUACGGACG	-0.378 ± 0.064	0.25 ± 0.084
AAAAAGCAAUAUUACGGCGG	-1.18 ± 0.059	-0.131 ± 0.077
AAAAAGCAAUAUUACGGGCG	-0.625 ± 0.075	-0.721 ± 0.091
AAAAAGCAAUAUUACGGUCC	-0.603 ± 0.084	0.0637 ± 0.11
AAAAAGCAAUAUUACGUCCA	-0.18 ± 0.076	0.113 ± 0.11
AAAAAGCAAUAUUACGUCUC	-1.51 ± 0.078	-0.62 ± 0.093
AAAAAGCAAUAUUACGUGAG	-0.91 ± 0.056	-0.523 ± 0.092
AAAAAGCAAUAUUACGUGGG	-3.51 ± 0.13	-2.03 ± 0.13
AAAAAGCAAUAUUACGUUAC	-2.57 ± 0.14	-1.91 ± 0.15
AAAAAGCAAUAUUACGUUUC	-2.04 ± 0.13	-3.26 ± 0.28
AAAAAGCAAUAUUACGUUUU	-2.42 ± 0.13	-2.39 ± 0.14
AAACAGCAAUAUUACGAACG	-2.5 ± 0.12	-0.625 ± 0.12

Sequence	self-splicing fitness (ln) (30 °C)	self-splicing fitness (ln) (37 °C)
AAACAGCAAUAUUACGACAU	-0.514 ± 0.011	-0.112 ± 0.032
AAACAGCAAUAUUACGAGGC	-3.32 ± 0.17	-3.12 ± 0.28
AAACAGCAAUAUUACGCAAA	-2.87 ± 0.12	-1.75 ± 0.1
AAACAGCAAUAUUACGCGAA	-1.95 ± 0.096	-1.43 ± 0.11
AAACAGCAAUAUUACGCGAC	-2.77 ± 0.21	-1.68 ± 0.14
AAACAGCAAUAUUACGCGAU	-2.98 ± 0.16	-2.42 ± 0.17
AAACAGCAAUAUUACGCGUU	-3.11 ± 0.11	-1.1 ± 0.1
AAACAGCAAUAUUACGCUCU	-0.653 ± 0.085	0.413 ± 0.086
AAACAGCAAUAUUACGGAGG	-4.68 ± 0.36	-1.86 ± 0.2
AAACAGCAAUAUUACGGAUC	-2.82 ± 0.11	-1.73 ± 0.11
AAACAGCAAUAUUACGGAUG	-3.43 ± 0.16	-3 ± 0.2
AAACAGCAAUAUUACGGAUU	-1.67 ± 0.068	-0.362 ± 0.079
AAACAGCAAUAUUACGGCUA	-0.275 ± 0.064	-0.0695 ± 0.076
AAACAGCAAUAUUACGUCCU	-0.281 ± 0.07	0.347 ± 0.094
AAACAGCAAUAUUACGUUAA	-2.66 ± 0.11	-0.816 ± 0.092
AAACAGCAAUAUUACGUUAU	-2.23 ± 0.072	-1.22 ± 0.085
AAACAGCAAUAUUACGUUUU	-3.81 ± 0.11	-3 ± 0.15
AAAGAGCAAUAUUACGAACA	-2.07 ± 0.35	-2.02 ± 0.4
AAAGAGCAAUAUUACGACAG	-3.56 ± 0.3	-2.86 ± 0.36
AAAGAGCAAUAUUACGACCG	-3.83 ± 0.18	-2.5 ± 0.19
AAAGAGCAAUAUUACGACCU	-1.39 ± 0.15	-0.748 ± 0.16
AAAGAGCAAUAUUACGACUA	-2.38 ± 0.3	-1.12 ± 0.25
AAAGAGCAAUAUUACGAUGG	-3.63 ± 0.33	-1.89 ± 0.25
AAAGAGCAAUAUUACGAUGU	-2.08 ± 0.17	-1.37 ± 0.23
AAAGAGCAAUAUUACGAUUU	-0.695 ± 0.14	0.468 ± 0.13
AAAGAGCAAUAUUACGCCGG	-3.8 ± 0.42	-2.53 ± 0.24

Sequence	self-splicing fitness (ln) (30 °C)	self-splicing fitness (ln) (37 °C)
AAAGAGCAAUAUUACGCCUG	-2.57 ± 0.28	-1.76 ± 0.33
AAAGAGCAAUAUUACGCGAU	-2.63 ± 0.35	-2.04 ± 0.34
AAAGAGCAAUAUUACGCGGA	-3.29 ± 0.33	-2.33 ± 0.22
AAAGAGCAAUAUUACGCUCC	-2.57 ± 0.3	-2 ± 0.41
AAAGAGCAAUAUUACGGAAA	-2.38 ± 0.26	-2.53 ± 0.41
AAAGAGCAAUAUUACGGACA	-2.68 ± 0.3	-1.81 ± 0.32
AAAGAGCAAUAUUACGGCUA	-1.28 ± 0.11	-1.13 ± 0.13
AAAGAGCAAUAUUACGGGUA	-2.81 ± 0.26	-1.88 ± 0.27
AAAGAGCAAUAUUACGGGUG	-3.95 ± 0.21	-1.88 ± 0.19
AAAGAGCAAUAUUACGGGUU	-3.43 ± 0.16	-2.78 ± 0.21
AAAGAGCAAUAUUACGGUAA	-1.74 ± 0.3	-1.67 ± 0.26
AAAGAGCAAUAUUACGGUUU	-2.16 ± 0.11	-1.06 ± 0.12
AAAGAGCAAUAUUACGUAAC	-3.77 ± 0.31	-2.88 ± 0.43
AAAGAGCAAUAUUACGUAUG	-3.72 ± 0.25	-2.06 ± 0.17
AAAUAGCAAUAUUACGAAGG	-2.61 ± 0.21	-1.45 ± 0.27
AAAUAGCAAUAUUACGACAC	-1 ± 0.11	0.319 ± 0.12
AAAUAGCAAUAUUACGACCA	-0.537 ± 0.12	-0.525 ± 0.17
AAAUAGCAAUAUUACGACCU	-0.0682 ± 0.092	0.265 ± 0.13
AAAUAGCAAUAUUACGACGA	-0.696 ± 0.099	-0.228 ± 0.14
AAAUAGCAAUAUUACGACUA	-0.367 ± 0.12	0.06 ± 0.13
AAAUAGCAAUAUUACGAUGU	-1.21 ± 0.078	-0.875 ± 0.089
AAAUAGCAAUAUUACGCAUU	-2.89 ± 0.14	-1.52 ± 0.12
AAAUAGCAAUAUUACGCCCC	-1.71 ± 0.32	0.0438 ± 0.38
AAAUAGCAAUAUUACGCGGC	–	-2.2 ± 0.42
